Results published in patent US20240150785A1.

Key:
Assay in all cases: co-immunoprecipitation with bead-bound His-SUMO-BdRFS^Δ1-45 from crude leaf protein extract, LC-MS/MS
Settings in all cases: scale: LFQ intensity
[1] = target: Abscisic acid-, Stress- and Ripening-induced 2 (BdASR2, Bd4g24650) (Brachypodium distachyon)
[2] = target: LPR2 (Low Phosphate Root 2; cupredoxin family) (Brachypodium distachyon)
[3] = target: NCED1 (Nine-cis Epoxycarotenoid Cleavage Dioxygenase 1) (Brachypodium distachyon)
[4] = target: PLAT1 (Polycystin, Lipoxygenase, Alpha-toxin, and Triacylglycerol lipase 1) (Brachypodium distachyon)
[5] = target: Phospholipase D α1 (BdPLD α1, Bd2g04480) (Brachypodium distachyon)

average LFQ intensity in eluate [1]: 5.19e+07
average LFQ intensity in eluate [2]: 2.53e+07
average LFQ intensity in eluate [3]: 1.48e+07
average LFQ intensity in eluate [5]: 9.17e+06
B1: His-SUMO-BdRFS^Δ1-45 (protein, not shown: small tags and cut ends; large carriers)
chain: RVRAAGSSHKPGGAVVRSTLVDNKKIASESFDGPRPARSEPASPISEPSSPSKVRFTAYYGGTGSDGGDDGVVEGVKKCAERDEDDFNGESETAVLRRTASMRMRSTIKAPLMAAPDWEEKEMALRKRGDLGWYRHLDMAVLDGSVVRLWTGEVTAAVQASPRERRRAGLELHLSV
average LFQ intensity in eluate [4]: 2.25e+07
